Measurements taken from the supplement of paper PMC9170038.

System: K4 kissing-loop RNA reporter
Assay: apparent KD of K4 kissing-loop reporter; higher = weaker reporter binding
Details: Eterna round: R107
Procedure: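 RNA-MaP round R107: designed RNA switches with theophylline, tryptophan, arginine or FMN aptamers are transcribed on-chip within common flanks. They are titrated with a labelled K4 kissing-loop RNA reporter in RNA-MaP buffer (100 mM Tris pH 7.5, 80 mM KCl, 4 mM MgCl2), without ligand or with the indicated ligand. Median apparent KD per design.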

[1] = input ligand: theophylline 20 uM
[2] = input ligand: tryptophan 2.4 mM
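Also: bound reporter read as fluorescence of individual clusters on recovered sequencing chips by microscopy, with normalized cluster intensities fitted with a binding model.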

Row | Sequence | apparent KD of K4 kissing-loop reporter (input ligand: FMN 200 uM) | apparent KD of K4 kissing-loop reporter (input ligand: arginine 13.2 mM) | apparent KD of K4 kissing-loop reporter (input ligand: none) | apparent KD of K4 kissing-loop reporter [1] | apparent KD of K4 kissing-loop reporter [2]
1 | AAGUGAUGUUGUAGUGAUGUUGUGAUGUUGCAGGAUAUAUAGUGAUGUAGAAGGGUAAGUACUUAUUUUUUUUUUGAGUGAUGUU [vcbczrmullin] | 96.6 nM | 45 nM | 76.5 nM | 58 nM | 83.7 nM
2 | GCGAACAUUCGCAGUGAUGUUGCGACGGAAGGAGCGCGUGAAAACGCAGGUAGGUCGCCGACAUACUUAAUUUUACAGUGUUCGC [Arginine A K4 29] | 268 nM | 191 nM | 294 nM | 247 nM | 194 nM
3 | CACUUACGUAGUGAUGUUACGAUCUCUGAUACCAGACAACUCUAAGUCCCUUGGCAGCAGUCAUUUUGCUUAUAAUUUACUCAAA [JR_ExcTheophyA_Sub015] | 657 nM | 556 nM | 786 nM | 646 nM | 508 nM
4 | GGCCGAAGAGAAGGAUAUGGUUUCACGCGUCGUUAGUGAUGUUAAUGCGCAUGCCUUAGUAUAGAGCCAGAAGGUCUGGUCAGAA [theeternabot_sameState_KL_FMN_B_34] | 170 nM | 199 nM | 219 nM | 210 nM | 213 nM
5 | AUGCCUCUGGCUGAUACCAGUGAUGCAGGGUAUGAGACAGGGAGUGAUGUUCCCUGCAGCCACCCUUGGCAGCAGUUUAAGUUUG [Exclusion Theophylline B GF 20] | 184 nM | 180 nM | 185 nM | 197 nM | 168 nM
6 | GUGCAAAGCACCGGCACGAGCAGCCUAAAGGAGGAUAUGACGAAAGUCAGAAGGCCUAGUGAUGUUAGGCCUUGCUUGAGUCGAA [Omei KL FMN A Exc B v1] | 131 nM | 137 nM | 169 nM | 183 nM | 151 nM
7 | UAGGAGUGAUGUUCCAUAUCUUGAGCCGAAGGAGCGGCAUUAUAGCCAGGUAGGUCGCGGCAGAAGGUACCAGUGAUGUUGGAAA [Same State Arginine A GF5] | 182 nM | 160 nM | 206 nM | 202 nM | 173 nM
8 | UAUGGCGAGGGCCGCAUAUCAUUAAACCAGAAGGAUAUAUGUUACUAUAGAAGGUCUGCCGCUGCGAGUGAUGUUUGGAGUGAUC [theeternabot_sameState_KL_FMN_A_3] | 326 nM | 195 nM | 260 nM | 242 nM | 229 nM
9 | UCUGGAGGAUAUGAUACCAGCAGUGAGAGAGAGGAAGUAUAGUGAUGUUAUAUGAGAGAAUGCCCUUGGCAGCGUGUGUAGUGGG [SSTheophylB.L] | 175 nM | 137 nM | 135 nM | 151 nM | 86.6 nM
10 | UAUUAAUUGUCAGGAUAUCGAAAUCGAGUGAUGUUCGUAUAUCGACGAUAGUCGAUAUUAUUUAUACGAGAAGGGACAUUAUUUA [JR_SSFMNB_Sub003] | 347 nM | 572 nM | 615 nM | 615 nM | 386 nM
11 | UGACUGGACUGAAGGAGCGGGCGAGACAAAGUCUCGAACUCGUAGUGAUGUUACGAAAUAACCCAGGUAGGUCGCAGUCUAGUCU | 77.8 nM | 62 nM | 74.9 nM | 67.2 nM | 74.9 nM
12 | CUUAAGAUAUGAGUGAUGUUUAUGUCCGAAGGAGCGUGCGAAAGUACAGGUAGGUCGCGGAUGUGAGUGAUGUUCAUGUAAGCGA [KL-XArg-A13 #analogue] | 132 nM | 87.9 nM | 114 nM | 109 nM | 106 nM
13 | UGUAUCAUCUAAGGAUAUAUCAUGUGAUGCACCGAGUAUCGCAUCAAUUCUGAGUGAUGUUCAGGUAUAGAAGGUAGAUGAUGCA [FMN B SS t2] | 207 nM | 178 nM | 212 nM | 259 nM | 228 nM
14 | AAAUAGAUCAGUCAUCCAGUGAUGUUGGAAGGAGCGUGCGAAAGCACAGGUAGGUCGCCGAAAUAAAAGUGGCUGAUCAAAAUAA | 128 nM | 216 nM | 143 nM | 193 nM | 102 nM
15 | GGUAGCAUGGCGGCCGCCACUCUUCAUUAGUGAUGUUAAUGCCGAGUGCGCUAACUCCAACAGGAGAGGACCGGGCCAUGCUACC | 532 nM | 445 nM | 501 nM | 760 nM | 98.8 nM
16 | CGAGUGAUGUUCGAAGAGUUGUUAAGCGAUACCAGCUAGGAAACUGGCCCUUGGCAGCGUAAUAAGUAAAUAAAUAAAUGAUCAC [whbob_Ex_Theo_A_th63] | 287 nM | 399 nM | 442 nM | 486 nM | 337 nM
17 | AAUAUAGUGAUGUUAUAUAAGAAGGAGUUACGAGGACCGGUACGGCCGCCACUCGAAACGAGUGAGGAUUUGGGAGAUUGGGUUC [SSTryptA.L] | 465 nM | 539 nM | 393 nM | 302 nM | 283 nM

Row | Sequence | apparent KD of K4 kissing-loop reporter (input ligand: FMN 200 uM) | apparent KD of K4 kissing-loop reporter (input ligand: arginine 13.2 mM) | apparent KD of K4 kissing-loop reporter (input ligand: none) | apparent KD of K4 kissing-loop reporter [1] | apparent KD of K4 kissing-loop reporter [2]
18 | UUCAGGUGUUCGGCCGCCACUCCAGUGAUGUUGGAGUGGCUUCACAAGGGCCAGGACAAUGUAGGGAGGACCGGGAAUAUCGCAG [Atvebeance] | 143 nM | 117 nM | 129 nM | 107 nM | 125 nM
19 | CUAUGGAAACAUAGUGAUCGGGAAACCGAUACCAGUAUGGAAACAUACCCUUGGCAGCGGAAUGAUCAAACGGAGUGAUGUUCCG [Theophylline A K4 21] | 459 nM | 318 nM | 648 nM | 278 nM | 288 nM
20 | CUGGGUUGACGAAAAGUCAACAAAAGAGAAGGAGCGCACGAAAGUGCAGGUAGGUCGCUCAUCCAGUGAUGUUGGAUCAUCCAGA [#SwitchBubble 16 #K4Late] | 345 nM | 611 nM | 316 nM | 646 nM | 273 nM
21 | UAAUUUAUGUCUUUAAUAUAAUAAUCAGAUACCAGUGAUUUAUGACACCCUUGGCAGCUGUAUAGAGUGAUGUUCUUAUGCUUAA [JR_ExcTheophyA_Sub011] | 247 nM | 324 nM | 278 nM | 375 nM | 179 nM
22 | UUUAAAUAUAGUGAUGUUAUAUAACAAUGACGAGGACCGGUACGGCCGCCACUCGAGAGAGAUAAUGGUCAUGCAAAUGUAUGUC [#15 K4 Tryptophan A Same State] | 674 nM | 684 nM | 789 nM | 746 nM | 615 nM
23 | UGAUAGGACAGAAGGAGCGGUAGUGAUGUUACCAAAAGGUUAAGGUGUCAAAAGACACCCUGCCAGGUAGGUCGCUGUCCUAUCU | 117 nM | 98 nM | 106 nM | 89.9 nM | 83.4 nM
24 | ACACGGAGAGGCAUAACGUGCAUCUUCAGCGAGGAUAUCCAUUACAGGAGAAGGCGCUCCGGAGUGAUGUUCCGGCAAAAGAUAC [Quatatte] | 83.5 nM | 151 nM | 102 nM | 146 nM | 91.5 nM
25 | GGAGGGAUCUCGGCCGCCACUCAUAAGAAAUGGGCCUCAGGGAUAUAGUGAUGUUAUGUAAAGAAGAGGACCGGGAGAAAGAAGG [ExTryptoB.Dc] | 263 nM | 245 nM | 248 nM | 348 nM | 175 nM
26 | CAUACGCAUGGAGGAUAUGAGAUUUCUCAUAUUAUUGCUUAUUCUCAGUGAUGUUGGGAUUUAAGCUCAGAAGGCCAUGUGUAUG [Ex FMN B 10] | 187 nM | 88.4 nM | 98 nM | 94.2 nM | 85.8 nM
27 | AAAAUAAGCCAGUGAUGUUGGUAUCCAGAUACCAGCGACGAAAGUCGCCCUUGGCAGCUGUGGACGUACAAAAUAAGUACGUCCU | 194 nM | 107 nM | 143 nM | 266 nM | 126 nM
28 | UGGACCUGACUCGAUAAGAGUCAAUGGGAUACCAGCCACGAAAGUGGCCCUUGGCAGCUCUACCAGUGAUGUUGGUCAAGGUCCU [#SwitchBubble 8 #StaticStem] | 1050 nM | 511 nM | 860 nM | 716 nM | 899 nM
29 | UGUCAUUGGUCGGCCGCCACUUCAUAGAGAGUGAUGUUCUUUAAGACGGAUCGAAAGAUCUGUCGAAGGACCGGGACCGAUGACU [FiskerMod 10 - Jieux - Same State - Tryptophan B] | 924 nM | 527 nM | 1390 nM | 777 nM | 262 nM
30 | GGCACUUUUGCUUGGAACCGUCAAGCUCUAUAGGAUAUGCCGAAAGGCAGAAGGAUGGACCUACAGAGUGAUGUUCUGCGUGCCU | 393 nM | 140 nM | 583 nM | 134 nM | 218 nM
31 | AAACAUCACUGGGAGUGAUGUUCUCAGUGACGAGGACCGGUACGGCCGCCACUCGCGAGAGAUAUAGAUAAGUAAUGACAUCAUU [Excl Tryptophan A V4] | 347 nM | 298 nM | 354 nM | 390 nM | 433 nM
32 | AAAUAGAUCAGUCACCCAGUGAUGUUGGAAGGAGCGUGCGAAAGCACAGGUAGGUCGCCAGAAUAAAAUUGGCUGAUCAAAAUAA | 260 nM | 337 nM | 212 nM | 393 nM | 149 nM
33 | UGAGGAGAUUAUGAUACCAGCAGAGAGAGAGAGGAAGUAUAGUGAUGUUAUAUGAGAUAAUGCCCUUGGCAGCAUAAGAAGAAGG [#20 K4 Theophylline B Same State] | 182 nM | 133 nM | 148 nM | 147 nM | 140 nM
